Results reported in US20100280227A1 (Genentech, published 2010).
Where “and” joins values, the source holds several entries; their conditions need not be identical. Equal values may be shown once. Read-outs that look alike come from different tables or passages of the source.

T1: mouse BR3-Fc (mouse)
T1 construct: (BR3 ECD fused to a murine Fc); also called mBR3-Fc; murine BR3-Fc
T1 chain: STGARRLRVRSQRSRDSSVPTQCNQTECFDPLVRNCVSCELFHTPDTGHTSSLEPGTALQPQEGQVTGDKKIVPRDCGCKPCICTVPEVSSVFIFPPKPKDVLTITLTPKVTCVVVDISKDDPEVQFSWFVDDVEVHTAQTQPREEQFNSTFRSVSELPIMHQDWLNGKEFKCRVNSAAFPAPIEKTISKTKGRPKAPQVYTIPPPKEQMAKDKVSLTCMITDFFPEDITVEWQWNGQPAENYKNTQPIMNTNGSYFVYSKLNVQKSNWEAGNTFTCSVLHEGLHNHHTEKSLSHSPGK

T2: murine BR3 expressed on cells (mouse, UniProt Q9D8D0 1-175)
T2 construct: whole, on cells; also called murine BR3 on BHK cells; mouse BR3
T2 sequence (looked up): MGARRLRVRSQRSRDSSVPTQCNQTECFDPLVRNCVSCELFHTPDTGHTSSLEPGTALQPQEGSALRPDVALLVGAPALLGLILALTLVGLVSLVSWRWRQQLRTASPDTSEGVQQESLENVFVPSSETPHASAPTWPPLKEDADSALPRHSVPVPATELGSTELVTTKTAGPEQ

T3: mouse BR3 extracellular domain (mouse, UniProt Q9D8D0 1-64)
T3 construct: also called mBR3-ECD; mBR-ECD
T3 sequence: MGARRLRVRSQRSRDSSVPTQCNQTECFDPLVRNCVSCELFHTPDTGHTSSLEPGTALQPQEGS

T4: mouse BR3 (form in the mapping assay not stated) (mouse, UniProt Q9D8D0 1-71, limits assumed)
T4 construct: May be the same as m2, m6 or m10
T4 sequence (looked up): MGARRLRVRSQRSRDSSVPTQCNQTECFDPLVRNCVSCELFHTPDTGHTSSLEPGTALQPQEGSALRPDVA


How the values were obtained:
[1] = molecular target: T5, variant human BR3-Fc fusion; test: competition ELISA on vhBR3-Fc against biotinylated 11G9
T5 construct: produced in CHO cells; also called vBR3-Fc; vhBR3-Fc

[2] = molecular target: T6, human BR3 expressed on cells (human, UniProt Q96RJ3 1-184); test: BJAB cells, competition with biotin-BAFF
T6 construct: whole, on cells; also called BR3 on BJAB cells; cell surface BR3
Description: (§1) The diluted samples were added to the pelleted BJAB cells in 96 well plates as described above. After 45 min incubation on ice, the cells were washed twice with 200 μl cold assay buffer, and streptavidin-HRP (AMDEX, Amersham Biosciences, Piscataway, N.J.) diluted 1/5,000 in assay buffer was added (100 μl/well). The plates were incubated for a final 45 min on ice. After washing twice with cold assay buffer, color was developed using TMB, the reaction was stopped with H₃PO₄, and the plates were read as described above.

[3] = molecular target: T7, human BR3 extracellular domain (human, UniProt Q96RJ3 1-61); test: SPR, IgG on chip, BR3 ECD in solution
T7 construct: biotinylated where used as tracer; also called hBR3-ECD; BR3-ECD

[4] = molecular target: T5, variant human BR3-Fc fusion; test: SPR, vBR3-Fc on chip;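 note: Anti-BR3 antibodies passed over chip-bound BR3-Fc in PBS with 0.05% polysorbate 20, on and off rates fitted together globally to a 1:1 binding model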
[5] = molecular target: T8, human BR3 displayed on phage, V29 alanine-scan mutant (human, UniProt Q96RJ3 1-61, limits assumed); test: shotgun alanine scan of phage-displayed BR3; F against wild type;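 note: Phage-displayed BR3 shotgun alanine libraries, two selection rounds for anti-BR3 antibody binding, normalized to a display selection, F above 1 marks a harmful substitution, below 1 a beneficial one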
T8 construct: One position of the shotgun alanine scan of BR3 on phage
Excerpt: (§2) At the sites of mutation, wild-type codons were replaced with the corresponding shotgun alanine codon (Weiss, supra). […] Library 1 encoded shotgun codons at positions 17, 18, 20-23, 25, 27, 28, 30, and 33, while library 2 encoded shotgun codons at positions 26, 29, 31, 34, and 36-42. Each library contained 2×10⁹ members, allowing for complete representation of the theoretical diversity (>10⁴-fold excess).
(§3) The display selection was included in order to normalize the anti-BR3 antibody-binding selection for expression differences between library members. Phage eluted from each target were propagated in E. coli XL 1-blue; amplified phage were used for selection against the same target as in the previous round. After two rounds of selection, 48 individual clones from each library and selection were grown in a 96-well format in 400 L of 2YT medium supplemented with carbenicillin and KO7 helper phage.
(§4) F-values were calculated as previously described (Weiss, supra; Gordon, supra). […] Deleterious mutations have ratios >1, while advantageous mutations have ratios <1; boldface indicates a >10-fold effect.

[6] = molecular target: T9, human BR3 displayed on phage, P18 alanine-scan mutant (human, UniProt Q96RJ3 1-61, limits assumed); test: as above
T9 construct: One position of the shotgun alanine scan of BR3 on phage
Excerpt: as §2, §3, §4

[7] = molecular target: T10, human BR3 displayed on phage, E23 alanine-scan mutant (human, UniProt Q96RJ3 1-61, limits assumed); test: as above
T10 construct: One position of the shotgun alanine scan of BR3 on phage
Excerpt: as §2, §3, §4

[8] = molecular target: human BR3 displayed on phage, mutated at A34 in the alanine scan (human, UniProt Q96RJ3 1-61, limits assumed); test: as above
Excerpt: as §2, §3, §4

[9] = molecular target: T11, human BR3 displayed on phage, L38 alanine-scan mutant (human, UniProt Q96RJ3 1-61, limits assumed); test: as above
T11 construct: One position of the shotgun alanine scan of BR3 on phage
Excerpt: as §2, §3, §4

[10] = molecular target: T12, human BR3 displayed on phage, R42 alanine-scan mutant (human, UniProt Q96RJ3 1-61, limits assumed); test: as above
T12 construct: One position of the shotgun alanine scan of BR3 on phage
Excerpt: as §2, §3, §4

[11] = molecular target: T13, human BR3 displayed on phage, L37 alanine-scan mutant (human, UniProt Q96RJ3 1-61, limits assumed); test: as above
T13 construct: One position of the shotgun alanine scan of BR3 on phage
Excerpt: as §2, §3, §4

[12] = molecular target: T14, human BR3 displayed on phage, P41 alanine-scan mutant (human, UniProt Q96RJ3 1-61, limits assumed); test: as above
T14 construct: One position of the shotgun alanine scan of BR3 on phage
Excerpt: as §2, §3, §4

[13] = molecular target: T15, human BR3 displayed on phage, V20 alanine-scan mutant (human, UniProt Q96RJ3 1-61, limits assumed); test: as above
T15 construct: One position of the shotgun alanine scan of BR3 on phage
Excerpt: as §2, §3, §4

[14] = molecular target: human BR3 displayed on phage, mutated at A22 in the alanine scan (human, UniProt Q96RJ3 1-61, limits assumed); test: as above
Excerpt: as §2, §3, §4

[15] = molecular target: T16, human BR3 displayed on phage, R39 alanine-scan mutant (human, UniProt Q96RJ3 1-61, limits assumed); test: as above
T16 construct: One position of the shotgun alanine scan of BR3 on phage
Excerpt: as §2, §3, §4

[16] = molecular target: T17, human BR3 displayed on phage, L27 alanine-scan mutant (human, UniProt Q96RJ3 1-61, limits assumed); test: as above
T17 construct: One position of the shotgun alanine scan of BR3 on phage
Excerpt: as §2, §3, §4

[17] = molecular target: T18, human BR3 displayed on phage, P21 alanine-scan mutant (human, UniProt Q96RJ3 1-61, limits assumed); test: as above
T18 construct: One position of the shotgun alanine scan of BR3 on phage
Excerpt: as §2, §3, §4

[18] = molecular target: T19, human BR3 displayed on phage, L28 alanine-scan mutant (human, UniProt Q96RJ3 1-61, limits assumed); test: as above
T19 construct: One position of the shotgun alanine scan of BR3 on phage
Excerpt: as §2, §3, §4

[19] = molecular target: T20, human BR3 displayed on phage, F25 alanine-scan mutant (human, UniProt Q96RJ3 1-61, limits assumed); test: as above
T20 construct: One position of the shotgun alanine scan of BR3 on phage
Excerpt: as §2, §3, §4

[20] = molecular target: T21, human BR3 displayed on phage, T17 alanine-scan mutant (human, UniProt Q96RJ3 1-61, limits assumed); test: as above
T21 construct: One position of the shotgun alanine scan of BR3 on phage; the F value gives the effect of this change against wild type; See m1 for the parent
Excerpt: as §2, §3, §4

[21] = molecular target: T22, human BR3 displayed on phage, R30 alanine-scan mutant (human, UniProt Q96RJ3 1-61, limits assumed); test: as above
T22 construct: One position of the shotgun alanine scan of BR3 on phage
Excerpt: as §2, §3, §4

[22] = molecular target: T23, human BR3 displayed on phage, H31 alanine-scan mutant (human, UniProt Q96RJ3 1-61, limits assumed); test: as above
T23 construct: One position of the shotgun alanine scan of BR3 on phage
Excerpt: as §2, §3, §4

[23] = molecular target: T24, human BR3 displayed on phage, D26 alanine-scan mutant (human, UniProt Q96RJ3 1-61, limits assumed); test: as above
T24 construct: One position of the shotgun alanine scan of BR3 on phage
Excerpt: as §2, §3, §4

[24] = molecular target: T25, human BR3 displayed on phage, T40 alanine-scan mutant (human, UniProt Q96RJ3 1-61, limits assumed); test: as above
T25 construct: One position of the shotgun alanine scan of BR3 on phage
Excerpt: as §2, §3, §4

[25] = molecular target: T7, human BR3 extracellular domain; test: SPR, BR3 ECD on chip;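 note: Anti-BR3 antibodies passed over the chip at high flow in PBS with 0.05% polysorbate 20, on and off rates fitted together globally to a 1:1 binding model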
Description: After coupling, unoccupied sites on the chip were blocked by injecting 20 μl of 1M ethanolamine, pH 8.5. The running buffer was PBS containing 0.05% polysorbate 20. […] The binding surface was regenerated by injecting 20-30 μl of 10 mM glycine.HCl (pH 1.5). […] Data were analyzed using a 1:1 binding model using global fitting. The association and dissociation rate constants were fitted simultaneously (BIAevaluation software).
A high flow rate was used in order to minimize mass transport effects.

[26] = molecular target: T6, human BR3 expressed on cells; test: BJAB cells, direct binding
Description: Direct and competitive binding assays were performed as follows. For the direct binding assay, IgG antibody samples were serially diluted in cold assay buffer to concentrations ranging between 300-0.02 nM. Samples (100 μl) were added to the pelleted cells, and the plates were incubated for 45 min on ice. An additional 100 μl assay buffer was then added to each well, and the plates were centrifuged at 1200 rpm for 5 min at 4° C. After carefully aspirating the supernatant, the cells were washed two additional times with 200 μl assay buffer. An anti-mouse IgG Fc-HRP or goat anti-human IgG Fc-HRP, as appropriate, was diluted 1/10,000 in cold assay buffer was added (100 μl/well, Jackson ImmunoResearch, West Grove, Pa.), and the plates were incubated on ice for 45 min. Following two washes with 200 μl cold assay buffer, tetramethyl benzidine (TMB, Kirkegaard & Perry Laboratories, Gaithersburg, Md.) was added, and color was allowed to develop for 10 min. One hundred microliters 1 M H₃PO₄ was added to stop the reaction. The plates were then read on a microplate reader at 450 nm with a 620 nm reference. In the direct binding assay, the indicated concentrations of mAbs were added to BJAB cells and bound mAb was detected.

[27] = molecular target: T5, variant human BR3-Fc fusion; test: competition ELISA on vhBR3-Fc against biotinylated 2.1
[28] = molecular target: T1, mouse BR3-Fc; test: ELISA: mBAFF-Flag titrated on coated mBR3-Fc, then F(ab)'2 phage #3 (V3) added and detected
Description: The wells were blocked by adding 65 ul 1% BSA for 30 minutes followed by 40 ul 1% Tween20 for another 30 minutes. Next, the wells were washed five times with PBS—0.05% Tween20. […] The wells were washed five times with PBS—0.05% Tween20.
Binding was quantified by adding 75 ul/well of horse radish peroxidase (HRP)-conjugated anti-M13 antibody in PBS plus 0.5% BSA and 0.05% Tween20 at room temperature for 30 minutes (Sidhu et al., supra). The wells were washed with PBS—0.05% Tween20 at least five times.

[29] = molecular target: T2, murine BR3 expressed on cells; test: BHK cells expressing murine BR3, competitive binding assay against BAFF
[30] = molecular target: T6, human BR3 expressed on cells; test: BJAB cells, competition with biotin-BAFF; remark: listed apart in the source
Description: as §1

[31] = molecular target: T3, mouse BR3 extracellular domain; test: SPR, IgG on chip, BR3 ECD in solution
[32] = molecular target: T4, mouse BR3 (form in the mapping assay …); test: competition ELISA on murine BR3 against biotinylated V3-1m
[33] = molecular target: T4, mouse BR3 (form in the mapping assay …); test: competition ELISA on murine BR3 against biotinylated B9C11
[34] = molecular target: T26, human BR3 displayed on phage, V33 alanine-scan mutant (human, UniProt Q96RJ3 1-61, limits assumed); test: shotgun alanine scan of phage-displayed BR3; F against wild type;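 note: Phage-displayed BR3 shotgun alanine libraries, two selection rounds for anti-BR3 antibody binding, normalized to a display selection, F above 1 marks a harmful substitution, below 1 a beneficial one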
T26 construct: One position of the shotgun alanine scan of BR3 on phage
Excerpt: as §2, §3, §4

[35] = molecular target: T27, human BR3 displayed on phage, G36 alanine-scan mutant (human, UniProt Q96RJ3 1-61, limits assumed); test: as above
T27 construct: One position of the shotgun alanine scan of BR3 on phage
Excerpt: as §2, §3, §4

[36] = molecular target: T6, human BR3 expressed on cells; test: BJAB cells, direct binding; remark: listed apart in the source

IC50 [2] | Kd [3] | koff [3] | kon [3] | F value [5] | F value [6] | F value [7] | F value [8] | F value [9] | F value [10] | F value [11] | F value [12] | F value [13] | F value [14] | F value [15] | F value [16] | F value [17] | F value [18] | F value [19] | F value [20] | Binder | further results
0.25 nM | 0.15 nM | 1.7e-05 s⁻¹ | 110000 M⁻¹ s⁻¹ | 0.5 | 0.5 | 9.6 | 62 | 0.9 | 1.8 | 0.1 | 0.7 | 3 | 3.2 | 0.5 | 0.8 | 1.9 | 0.1 | 49 | 0.6 | murine monoclonal antibody 2.1 (antibody, V domains shown, mouse hybridoma IgG; also called 2.1 IgG; mu2.1) VH: EVQLQESGPSLVKPSQTLSLTCSVTGDSITRGYWNWIRKFPGNKLEFMGYINYSGTTYYNPSLKSRISITRDTSKNQYYLQLNSVTTEDTATYYCATPHTYGAMDYWGQGTTLTVSA VL: DIVLTQSPVSLAVSLGQRATISCRASESVDDYGISFMHWYQQKPGQPPKLLIYRASDLESGIPARFSGSGSGTDFTLTINPVETDDVAIYYCQQTSKDPWTFGGGT | IC50 (read off the curve) [1]: ~100 ng/mL; Kd [4]: 0.08 nM and 0.07 nM; koff [4]: 3.4e-05 s⁻¹ and 3.3e-05 s⁻¹; kon [4]: 440000 M⁻¹ s⁻¹ and 470000 M⁻¹ s⁻¹; F value [21]: 10; F value [22]: 0.6; F value [23]: 6.1; F value [24]: 0.2; Kd [25]: 0.05 nM; koff [25]: 5.2e-05 s⁻¹; kon [25]: 960000 M⁻¹ s⁻¹; EC50 [26]: 0.16 nM; IC50 (read off the curve) [27]: ~600 ng/mL
 |  |  |  |  |  |  |  |  |  |  |  |  |  |  |  |  |  |  |  | mBAFF-Flag protein (ligand, mouse, UniProt Q9WU72 127-309, looked up, not shown: small tags and cut ends) AFQGPEETEQDVDLSAPPAPCLPGCRHSQHDDNGMNLRNIIQDCLQLIADSDTPTIRKGTYTFVPWLLSFKRGNALEEKENKIVVRQTGYFFIYSQVLYTDPIFAMGHVIQRKKVHVFGDELSLVTLFRCIQNMPKTLPNNSCYSAGIARLEEGDEIQLAIPRENAQISRNGDDTFFGALKLL | IC50 (read off the curve) [28]: ~2 nM
2.47 nM | 0.64 nM | 0.000171 s⁻¹ | 267000 M⁻¹ s⁻¹ | 92 | 0.8 | 2.4 | 13 | 1.4 | 0.9 | 0.7 | 1.6 | 0.9 | 0.7 | 0.4 | 1.4 | 0.6 | 98 | 21 | 0.5 | V3-1m (antibody, mouse IgG2a, V domains shown, also called mV3-1; V3-1 (IgG)) VH: EVQLVESGGGLVQPGGSLRLSCAASGFTISSNSIHWVRQAPGKGLEWVAWITPSDGNTDYADSVKGRFTISADTSKNTAYLQMNSLRAEDTAVYYCARRVCYNRLGVCAGGMDYWGQGTLVTVSS VL: DIQMTQSPSSLSASVGDRVTITCRASQDVSTAVAWYQQKPGKAPKLLIYSASFLYSGVPSRFSGSGSGTDFTLTISSLQPEDFATYYCQQSRITPPTFGQGTKVEIKR | IC50 [29]: 36.2 nM; IC50 [30]: 8.9 nM; Kd [31]: 1.56 nM; koff [31]: 0.000131 s⁻¹; kon [31]: 84000 M⁻¹ s⁻¹; IC50 (read off the curve) [32]: ~600 ng/mL; IC50 (read off the curve) [33]: ~800 ng/mL; F value [34]: 14; F value [22]: 0.1; F value [35]: 0.7; F value [23]: 8.7; F value [24]: 0.6; EC50 [26]: 3.37 nM; EC50 [36]: 4.3 nM
